Assay results from paper PMC9482650, “Quantitative fragmentomics allow affinity mapping of interactomes” (Nature Communications, 2022).

T1: DFNB31_2, Q9P202
T1 sequence (Q9P202 274-371, limits assumed, looked up): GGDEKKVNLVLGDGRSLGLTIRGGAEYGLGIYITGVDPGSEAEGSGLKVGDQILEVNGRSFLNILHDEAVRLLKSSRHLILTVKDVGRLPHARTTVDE

T2: GRIP1_5, Q9Y3R0
T2 sequence (Q9Y3R0 568-668, limits assumed, looked up): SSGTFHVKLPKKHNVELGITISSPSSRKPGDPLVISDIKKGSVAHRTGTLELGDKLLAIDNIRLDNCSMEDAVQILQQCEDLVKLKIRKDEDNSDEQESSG

T3: SHANK1, Q9Y566
T3 sequence (Q9Y566 658-767, limits assumed, looked up): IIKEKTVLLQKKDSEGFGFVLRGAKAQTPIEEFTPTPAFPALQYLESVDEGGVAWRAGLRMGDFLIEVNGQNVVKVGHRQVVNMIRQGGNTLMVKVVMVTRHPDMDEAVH

T4: TIAM2, Q8IVF5
T4 sequence (Q8IVF5 885-986, limits assumed, looked up): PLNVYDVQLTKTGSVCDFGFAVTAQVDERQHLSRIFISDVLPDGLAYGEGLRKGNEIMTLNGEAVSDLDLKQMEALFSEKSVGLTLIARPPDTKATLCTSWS

T5: DLG3_3, Q92796
T5 sequence (Q92796 374-475, limits assumed, looked up): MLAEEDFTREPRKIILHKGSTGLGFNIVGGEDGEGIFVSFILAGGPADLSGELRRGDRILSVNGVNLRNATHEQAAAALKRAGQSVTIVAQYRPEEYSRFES

T6: MPP2, Q14168
T6 sequence (Q14168 180-250, limits assumed, looked up): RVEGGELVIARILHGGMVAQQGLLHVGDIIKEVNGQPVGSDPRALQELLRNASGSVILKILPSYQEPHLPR

T7: LNX2_2, Q8N448
T7 sequence (Q8N448 334-432, limits assumed, looked up): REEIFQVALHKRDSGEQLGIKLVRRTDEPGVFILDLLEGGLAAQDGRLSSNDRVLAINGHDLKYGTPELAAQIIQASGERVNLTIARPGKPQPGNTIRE

T8: TJP3_3, O95049
T8 sequence (O95049 375-456, limits assumed, looked up): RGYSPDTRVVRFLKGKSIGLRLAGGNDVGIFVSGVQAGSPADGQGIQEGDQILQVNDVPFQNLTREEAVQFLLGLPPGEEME

T9: NHERF3_1, Q5T2W1
T9 sequence (Q5T2W1 4-100, limits assumed, looked up): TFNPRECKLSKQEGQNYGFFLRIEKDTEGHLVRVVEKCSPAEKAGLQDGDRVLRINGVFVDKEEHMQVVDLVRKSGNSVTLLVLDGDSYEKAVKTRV

T10: NHERF3_3, Q5T2W1
T10 sequence (Q5T2W1 238-333, limits assumed, looked up): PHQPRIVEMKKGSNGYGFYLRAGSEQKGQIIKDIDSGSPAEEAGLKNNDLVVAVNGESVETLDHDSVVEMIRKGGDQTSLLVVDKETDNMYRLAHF

T11: PCLO, Q9Y6V0
T11 sequence (Q9Y6V0 4491-4600, limits assumed, looked up): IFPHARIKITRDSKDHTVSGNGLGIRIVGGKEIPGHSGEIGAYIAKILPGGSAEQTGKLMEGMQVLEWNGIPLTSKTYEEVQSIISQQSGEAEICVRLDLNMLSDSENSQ


What was measured:
Test in all cases: holdup assay
Set-up in all cases: key: below the threshold = too weak to quantify, mostly under pKd 3.1 to 4
Conditions in all cases: plain residues with an end cap or a label only (N-terminal biotin on a linker: ado-ado)
MAGI2_6, Q86UL8 = target: MAGI2_6, Q86UL8
MAGI2_6, Q86UL8, sequence (Q86UL8 1141-1229): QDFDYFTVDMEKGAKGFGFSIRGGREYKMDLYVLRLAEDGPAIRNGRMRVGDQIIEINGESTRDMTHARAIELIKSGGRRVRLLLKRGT

DLG1_3, Q12959 = target: DLG1_3, Q12959
DLG1_3, Q12959, sequence (Q12959 457-571): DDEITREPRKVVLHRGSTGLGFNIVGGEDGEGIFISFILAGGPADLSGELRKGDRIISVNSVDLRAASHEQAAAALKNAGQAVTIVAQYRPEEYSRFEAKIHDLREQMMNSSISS

DFNB31_2, Q9P202 = target: T1, DFNB31_2, Q9P202
GRIP1_5, Q9Y3R0 = target: T2, GRIP1_5, Q9Y3R0
DLG4_1, P78352 = target: DLG4_1, P78352
DLG4_1, P78352, sequence (P78352 62-152): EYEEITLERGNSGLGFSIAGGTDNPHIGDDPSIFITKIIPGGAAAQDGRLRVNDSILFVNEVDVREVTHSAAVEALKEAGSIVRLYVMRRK

SHANK1, Q9Y566 = target: T3, SHANK1, Q9Y566
TIAM2, Q8IVF5 = target: T4, TIAM2, Q8IVF5
DLG3_3, Q92796 = target: T5, DLG3_3, Q92796
Inadl_6, Q8NI35 = target: Inadl_6, Q8NI35
Inadl_6, Q8NI35, sequence (Q8NI35 1058-1167): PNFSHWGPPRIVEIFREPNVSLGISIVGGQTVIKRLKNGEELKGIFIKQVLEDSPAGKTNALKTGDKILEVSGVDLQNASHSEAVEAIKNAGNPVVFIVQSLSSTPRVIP

DLG4_3, P78352 = target: DLG4_3, P78352
DLG4_3, P78352, sequence (P78352 306-403): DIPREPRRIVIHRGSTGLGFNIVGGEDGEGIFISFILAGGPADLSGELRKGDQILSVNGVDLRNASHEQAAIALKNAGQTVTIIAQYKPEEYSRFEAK

MPP2, Q14168 = target: T6, MPP2, Q14168
PICK1, Q9NRD5 = target: PICK1, Q9NRD5
PICK1, Q9NRD5, sequence (Q9NRD5 17-115): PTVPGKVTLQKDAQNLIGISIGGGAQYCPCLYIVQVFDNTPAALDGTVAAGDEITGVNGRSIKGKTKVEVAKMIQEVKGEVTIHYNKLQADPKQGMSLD

GORASP1, Q9BQQ3 = target: GORASP1, Q9BQQ3
GORASP1, Q9BQQ3, sequence (Q9BQQ3 1-208): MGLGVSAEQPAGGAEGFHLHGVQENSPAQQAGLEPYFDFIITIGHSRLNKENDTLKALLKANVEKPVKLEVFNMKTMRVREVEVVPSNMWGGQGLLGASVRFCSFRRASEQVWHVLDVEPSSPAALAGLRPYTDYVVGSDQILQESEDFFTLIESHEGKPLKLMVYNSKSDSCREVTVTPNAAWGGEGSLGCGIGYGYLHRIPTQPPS

PTPN3, P26045 = target: PTPN3, P26045
PTPN3, P26045, sequence (P26045 505-587): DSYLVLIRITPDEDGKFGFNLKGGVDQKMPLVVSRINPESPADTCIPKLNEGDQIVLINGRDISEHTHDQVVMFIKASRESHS

NHERF4_1, Q86UT5-2 = target: NHERF4_1, Q86UT5-2
NHERF4_1, Q86UT5-2, sequence (Q86UT5 other isoform, or with tags, fused parts or gaps): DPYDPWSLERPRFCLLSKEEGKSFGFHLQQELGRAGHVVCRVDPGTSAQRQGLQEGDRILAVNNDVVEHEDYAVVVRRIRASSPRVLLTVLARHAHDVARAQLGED

IL16_1, Q14005 = target: IL16_1, Q14005
IL16_1, Q14005, sequence (Q14005 210-306): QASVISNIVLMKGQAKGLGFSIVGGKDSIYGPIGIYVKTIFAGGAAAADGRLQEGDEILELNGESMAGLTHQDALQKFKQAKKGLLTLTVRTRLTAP

LNX2_2, Q8N448 = target: T7, LNX2_2, Q8N448
FRMPD2_2, Q68DX3 = target: FRMPD2_2, Q68DX3
FRMPD2_2, Q68DX3, sequence (Q68DX3 944-1038): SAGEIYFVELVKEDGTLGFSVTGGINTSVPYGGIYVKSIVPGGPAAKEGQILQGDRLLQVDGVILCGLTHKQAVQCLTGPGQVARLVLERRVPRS

NOS1, P29475 = target: NOS1, P29475
NOS1, P29475, sequence (P29475 9-101): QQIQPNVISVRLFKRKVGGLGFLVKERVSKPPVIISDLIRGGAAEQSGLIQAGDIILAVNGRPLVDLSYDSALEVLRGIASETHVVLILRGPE

TJP1_3, Q07157 = target: TJP1_3, Q07157
TJP1_3, Q07157, sequence (Q07157 416-512): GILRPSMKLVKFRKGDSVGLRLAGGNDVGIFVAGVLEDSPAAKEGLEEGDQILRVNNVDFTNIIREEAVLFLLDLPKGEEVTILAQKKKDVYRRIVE

Inadl_8, Q8NI35 = target: Inadl_8, Q8NI35
Inadl_8, Q8NI35, sequence (Q8NI35 1425-1530): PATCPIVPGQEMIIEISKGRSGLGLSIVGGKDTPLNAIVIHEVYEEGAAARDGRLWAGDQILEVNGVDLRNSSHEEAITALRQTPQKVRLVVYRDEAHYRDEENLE

TJP3_3, O95049 = target: T8, TJP3_3, O95049
MAGI2_2, Q86UL8 = target: MAGI2_2, Q86UL8
MAGI2_2, Q86UL8, sequence (Q86UL8 410-522): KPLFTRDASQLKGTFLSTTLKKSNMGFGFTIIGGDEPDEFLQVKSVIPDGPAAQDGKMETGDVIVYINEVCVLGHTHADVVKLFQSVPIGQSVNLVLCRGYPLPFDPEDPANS

NHERF3_1, Q5T2W1 = target: T9, NHERF3_1, Q5T2W1
NHERF3_3, Q5T2W1 = target: T10, NHERF3_3, Q5T2W1
GRID2IP_1, A4D2P6 = target: GRID2IP_1, A4D2P6
GRID2IP_1, A4D2P6, sequence (A4D2P6 1-87): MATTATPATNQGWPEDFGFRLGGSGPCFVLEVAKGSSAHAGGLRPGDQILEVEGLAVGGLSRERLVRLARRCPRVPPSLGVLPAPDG

PCLO, Q9Y6V0 = target: T11, PCLO, Q9Y6V0

Binder | pKd (MAGI2_6, Q86UL8) | pKd (DLG1_3, Q12959) | pKd (DFNB31_2, Q9P202) | pKd (GRIP1_5, Q9Y3R0) | pKd (DLG4_1, P78352) | pKd (SHANK1, Q9Y566) | pKd (TIAM2, Q8IVF5) | pKd (DLG3_3, Q92796) | pKd (Inadl_6, Q8NI35) | pKd (DLG4_3, P78352) | pKd (MPP2, Q14168) | pKd (PICK1, Q9NRD5) | pKd (GORASP1, Q9BQQ3) | pKd (PTPN3, P26045) | pKd (NHERF4_1, Q86UT5-2) | pKd (IL16_1, Q14005) | pKd (LNX2_2, Q8N448) | pKd (FRMPD2_2, Q68DX3) | pKd (NOS1, P29475) | pKd (TJP1_3, Q07157) | also measured
QGPVETESVV [SLC45A4, Q5BKX6] | 3.55 | below the threshold | below the threshold | below the threshold | 4.33 | below the threshold | below the threshold | below the threshold | 3.57 | below the threshold | below the threshold | below the threshold | 3.65 | 4.66 | 3.48 | 4.95 | 4.31 | 4.19 | 3.85 | below the threshold | pKd (Inadl_8, Q8NI35): 3.7; pKd (TJP3_3, O95049): 3.59; pKd (MAGI2_2, Q86UL8): 3.78; pKd (NHERF3_1, Q5T2W1): 4.01; pKd (NHERF3_3, Q5T2W1): below the threshold; pKd (GRID2IP_1, A4D2P6): below the threshold; pKd (PCLO, Q9Y6V0): below the threshold
TKGPRGPTRV [SAPCD1, Q5SSQ6] | below the threshold | 4.31 | below the threshold | below the threshold | 4.48 | 4.26 | below the threshold | 4.44 | below the threshold | 4.59 | below the threshold | 4.11 | 3.57 | below the threshold | below the threshold | below the threshold | 3.87 | below the threshold | 4.2 | below the threshold | pKd (Inadl_8, Q8NI35): 5.64; pKd (TJP3_3, O95049): below the threshold; pKd (MAGI2_2, Q86UL8): 5.42; pKd (NHERF3_1, Q5T2W1): below the threshold; pKd (NHERF3_3, Q5T2W1): below the threshold; pKd (GRID2IP_1, A4D2P6): below the threshold; pKd (PCLO, Q9Y6V0): below the threshold

Second part, led by results:

pKd (MAGI2_6, Q86UL8) | pKd (DLG1_3, Q12959) | pKd (DFNB31_2, Q9P202) | pKd (GRIP1_5, Q9Y3R0) | pKd (DLG4_1, P78352) | pKd (SHANK1, Q9Y566) | pKd (TIAM2, Q8IVF5) | pKd (DLG3_3, Q92796) | pKd (Inadl_6, Q8NI35) | pKd (DLG4_3, P78352) | pKd (MPP2, Q14168) | pKd (PICK1, Q9NRD5) | pKd (GORASP1, Q9BQQ3) | pKd (PTPN3, P26045) | pKd (NHERF4_1, Q86UT5-2) | pKd (IL16_1, Q14005) | pKd (LNX2_2, Q8N448) | pKd (FRMPD2_2, Q68DX3) | pKd (NOS1, P29475) | pKd (TJP1_3, Q07157) | Binder | also measured
below the threshold | below the threshold | below the threshold | below the threshold | 3.6 | below the threshold | 3.79 | below the threshold | below the threshold | below the threshold | below the threshold | 3.97 | 3.67 | 4.59 | below the threshold | below the threshold | 4.46 | below the threshold | 3.53 | below the threshold | ETQVTAETVI [TMEM225B, P0DP42] | pKd (Inadl_8, Q8NI35): below the threshold; pKd (TJP3_3, O95049): below the threshold; pKd (MAGI2_2, Q86UL8): below the threshold; pKd (NHERF3_1, Q5T2W1): 4.68; pKd (NHERF3_3, Q5T2W1): below the threshold; pKd (GRID2IP_1, A4D2P6): below the threshold; pKd (PCLO, Q9Y6V0): below the threshold
below the threshold | below the threshold | below the threshold | below the threshold | below the threshold | below the threshold | 4.11 | below the threshold | below the threshold | 3.5 | below the threshold | below the threshold | below the threshold | 3.87 | below the threshold | below the threshold | 3.56 | below the threshold | below the threshold | below the threshold | SNAGNTATKA [NOSTRIN, Q8IVI9] | pKd (Inadl_8, Q8NI35): below the threshold; pKd (TJP3_3, O95049): below the threshold; pKd (MAGI2_2, Q86UL8): 3.56; pKd (NHERF3_1, Q5T2W1): below the threshold; pKd (NHERF3_3, Q5T2W1): below the threshold; pKd (GRID2IP_1, A4D2P6): below the threshold; pKd (PCLO, Q9Y6V0): below the threshold
below the threshold | 3.55 | below the threshold | below the threshold | 5.02 | below the threshold | below the threshold | 4.2 | below the threshold | 4.26 | below the threshold | 4.09 | 3.56 | 3.8 | below the threshold | below the threshold | 4.63 | below the threshold | below the threshold | below the threshold | SGSLKLMTTV [DACT1, Q9NYF0] | pKd (Inadl_8, Q8NI35): 4.09; pKd (TJP3_3, O95049): below the threshold; pKd (MAGI2_2, Q86UL8): 5.28; pKd (NHERF3_1, Q5T2W1): below the threshold; pKd (NHERF3_3, Q5T2W1): below the threshold; pKd (GRID2IP_1, A4D2P6): below the threshold; pKd (PCLO, Q9Y6V0): below the threshold
